Target: T1, human beta-secretase-Fc fusion (Homo sapiens, UniProt P56817)
T1 construct: A plasmid containing cDNA encoding amino acids 1-460 of beta-secretase fused to the Fc portion of human IgG; made in house; host or cells: human embryonic kidney 293T cells, stably transfected; purified from conditioned medium on protein A
Assay: Beta-secretase activity assay: cleavage of DNP-labeled APP peptides, HPLC
Type: biochemical
Conditions: Sw, Wt and MV peptides; FIG. 11
Method: FIG. 11 is a graph depicting the ability of human beta-secretase-Fc fusion to cleave various APP peptides. The X-axis is the amount of enzyme in the reaction mixture and the Y-axis is the amount of cleavage (denoted as pmol product formed) of each of three substrate peptides. “Sw” refers to the APP peptide with the Swedish mutation; “Wt” refers to wild type APP peptide; and “MV” refers to a mutated APP peptide.
Recombinant native as well as mutant beta secretase polypeptides were assayed for activity by measuring the ability of the molecule to cleave various A-beta peptides.
Each assay was conducted as follows. […] Quenched reactions were analyzed by HPLC on a 5 μm, C18 reversed-phase column (Sephasil Peptide, 4.6×100 mm; Amersham Pharmacia Biotech, Piscataway, N.J.) using first a linear gradient of 18-31.5 percent acetonitrile in 0.1 percent TFA over 40 minutes, then 31.5-81 percent acetonitrile for 1 minute, then 81 percent acetonitrile for 4 minutes, and then returning to 18-percent acetonitrile for several minutes to reequilibrate the column. […] Proteolysis of the Sw and WT octapeptides was evaluated using a linear gradient of 27-37.8 percent acetonitrile over 24 minutes on the same column.
Both product and substrate were monitored by absorbance at 360 nm. […]
The concentration of standard was determined from the extinction coefficient of DNP (e365nm=16 mM^−1cm^−1). […]

T1 sequence (P56817 with tags, fused parts or gaps limits assumed): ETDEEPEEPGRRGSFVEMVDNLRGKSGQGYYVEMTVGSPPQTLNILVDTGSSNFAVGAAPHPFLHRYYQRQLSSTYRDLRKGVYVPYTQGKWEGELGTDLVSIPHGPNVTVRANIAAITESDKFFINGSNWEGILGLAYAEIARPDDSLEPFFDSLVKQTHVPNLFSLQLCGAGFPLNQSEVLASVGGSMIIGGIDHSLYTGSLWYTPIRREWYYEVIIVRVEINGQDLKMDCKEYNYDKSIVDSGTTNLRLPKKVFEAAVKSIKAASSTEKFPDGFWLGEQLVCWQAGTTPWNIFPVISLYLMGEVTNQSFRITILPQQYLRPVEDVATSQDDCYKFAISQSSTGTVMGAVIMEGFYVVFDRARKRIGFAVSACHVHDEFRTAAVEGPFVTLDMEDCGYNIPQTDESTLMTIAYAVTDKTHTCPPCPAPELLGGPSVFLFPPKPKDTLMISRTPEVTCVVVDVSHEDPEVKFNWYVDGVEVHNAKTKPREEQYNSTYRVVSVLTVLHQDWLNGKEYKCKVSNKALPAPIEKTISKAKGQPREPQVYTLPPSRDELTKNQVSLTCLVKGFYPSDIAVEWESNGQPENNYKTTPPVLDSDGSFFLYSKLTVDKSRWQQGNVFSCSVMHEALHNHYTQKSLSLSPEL

B1: beta-secretase-Fc: amino acids 1-460 of human beta-secretase fused to the Fc portion of human IgG1, alanine-valine-threonine at the junction (protein)
chain: TQHGIRLPLRSGLGGAPLGLRLPRETDEEPEEPGRRGSFVEMVDNLRGKSGQGYYVEMTVGSPPQTLNILVDTGSSNFAVGAAPHPFLHRYYQRQLSSTYRDLRKGVYVPYTQGKWEGELGTDLVSIPHGPNVTVRANIAAITESDKFFINGSNWEGILGLAYAEIARPDDSLEPFFDSLVKQTHVPNLFSLQLCGAGFPLNQSEVLASVGGSMIIGGIDHSLYTGSLWYTPIRREWYYEVIIVRVEINGQDLKMDCKEYNYDKSIVDSGTTNLRLPKKVFEAAVKSIKAASSTEKFPDGFWLGEQLVCWQAGTTPWNIFPVISLYLMGEVTNQSFRITILPQQYLRPVEDVATSQDDCYKFAISQSSTGTVMGAVIMEGFYVVFDRARKRIGFAVSACHVHDEFRTAAVEGPFVTLDMEDCGYNIPQTDESTLMTIAYAVT
modifications: left off: a dimerising Fc or GST
notes: amino acids 1-460 of human beta-secretase fused to the Fc portion of human IgG1, alanine-valine-threonine at the junction
  substrate specificity of the enzyme: has the same substrate specificity that has previously been described for beta-secretase from intact cells

— patent publication US7579180B2, “Beta secretase polypeptides” (Amgen Inc., priority 1999, dated 2009)
